How the values were obtained:
[1] = target: T1, human PD-L1 (Programmed Cell Death 1 Ligand 1) (human, UniProt Q9NZQ7 19-290); assay: saturation binding / Scatchard analysis on cells, 3-3000 pM ^111In-PD-L1.3.1 in 1 ml, 4 h on ice, non-specific binding (100 nM PD-L1.3.1) subtracted; the panel does not name the cell line (MDA-MB-231 cells were used in subsequent binding assays)
T1 construct: whole, on cells; Endogenous PD-L1 on breast cancer cell lines; also called CD274; PDCD1LG1
Protocol: (§1) Cells were cultured to confluency in six-well plates and were incubated for 4 h on ice with increasing concentrations ¹¹¹In-PD-L1.3.1 (3-3000 pM) in 1 ml RPMI1640 containing 0.5% BSA. Non-specific binding was determined by co-incubation with 100 nM PD-L1.3.1. After incubation, cells were washed with PBS and the cell-associated activity was measured in a shielded well-type gamma counter. The specific binding (total binding−nonspecific binding) was plotted against the bound/free ratio. Data were analyzed by linear regression to determine PD-L1 receptor density per cell and to determine the Kd of ¹¹¹In-PD-L1.3.1.

[2] = target: T1, human PD-L1 (Programmed Cell Death 1 …); assay: Scatchard analysis on cells (MDA-MB-231 used for binding assays), 3-3000 pM ^111In-PD-L1.3.1, 4 h on ice, gamma counter; 111In-labeled antibody; Scatchard affinity on MDA-MB-231 cells
Protocol: as §1

[3] = target: T1, human PD-L1 (Programmed Cell Death 1 …); assay: competition on MDA-MB-231 cells, 4 h on ice; unlabeled PD-L1.3.1 (1-1000 pM) against 20 pM ^111In-PD-L1.3.1 as competitor; gamma counter; unlabeled antibody; competition IC50 on MDA-MB-231 cells
Protocol: MDA-MB-231 cells were cultured to confluency in six-well plates. The 50% inhibitory concentration (IC₅₀) of PD-L1.3.1 blocking of ¹¹¹In-PD-L1.3.1 binding was determined by incubating the cells for 4 h on ice in 1 ml RPMI1640 0.5% BSA, containing 20 pM ¹¹¹In-PD-L1.3.1 (1 kBq) and increasing concentrations of unlabeled PD-L1.3.1 (1-1000 pM). After incubation, cells were washed with PBS and the cell-associated activity was measured in a gamma counter. The IC₅₀ was defined as the antibody concentration that was required to inhibit binding of the radio labeled antibody by 50%. IC₅₀ values were calculated using GraphPad Prism.

T1 sequence (Q9NZQ7 19-290): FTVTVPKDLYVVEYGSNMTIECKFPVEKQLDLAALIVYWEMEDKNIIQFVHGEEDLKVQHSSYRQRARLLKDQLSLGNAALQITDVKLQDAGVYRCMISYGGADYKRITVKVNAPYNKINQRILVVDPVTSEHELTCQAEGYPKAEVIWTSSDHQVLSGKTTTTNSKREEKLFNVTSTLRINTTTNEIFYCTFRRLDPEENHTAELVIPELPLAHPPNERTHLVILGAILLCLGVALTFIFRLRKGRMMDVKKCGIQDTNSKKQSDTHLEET

Binder | Kd [1] [pM] | Kd [2] [pM] | IC50 [3] [pM]
^111In-DTPA-PD-L1.3.1 (antibody, V domains shown, ITC-DTPA conjugated and chelating ^111In; residues and chain not stated) VH: EVQLQQSGTELVKPGASVKLSCTTSGFNIQDTYMHWVKQRPEQGLEWIGWIDPANGNTKYDPKFQGKATIIADTSSNTAYLQLRGLTSEDTAVYYCARSGVSTAHFDYWGQGTTLTVSS VL: QIVLSQSPAILSASPGEKVTMTCRASSSVSFMHWYQQKPGSSPKPWIYATSNLASGVPTRFSGSGSGTSYSLTLSRVEAEDAATYYCQQWSSYPRTFGGGTKLEIK | 1000 | 970 | 
PD-L1.3.1 antibody (murine monoclonal IgG1, unlabeled) (antibody, V domains shown, also called PD-L1.3.1 mAb; unlabeled PD-L1.3.1) VH: EVQLQQSGTELVKPGASVKLSCTTSGFNIQDTYMHWVKQRPEQGLEWIGWIDPANGNTKYDPKFQGKATIIADTSSNTAYLQLRGLTSEDTAVYYCARSGVSTAHFDYWGQGTTLTVSS VL: QIVLSQSPAILSASPGEKVTMTCRASSSVSFMHWYQQKPGSSPKPWIYATSNLASGVPTRFSGSGSGTSYSLTLSRVEAEDAATYYCQQWSSYPRTFGGGTKLEIK |  |  | 150
